Reference: paper doi:10.1101/521815 (bioRxiv, 2019)

B1: ABIN-1 UBAN (mouse, aa 463-532), GST tag cleaved (domain or fragment, UniProt Q9WUU8 463-532, looked up)
chain: LRKQELVTQNELLKQQVKIFEEDFQRERSDRERMNEEKEELKKQVEKLQAQVTLTNAQLKTLKEEEKAKE
B2: GST-OPTN UBAN (aa 420-509) S473E (domain or fragment, human, UniProt Q96CV9 420-509, looked up)
chain: RAVLKELSEKLELAEKALASKQLQMDEMKQTIAKQEEDLETMTILRAQMEVYCEDFHAERAAREKIHEEKEQLALQLAVLLKENDAFEDG
B3: GST-OPTN UBAN (aa 420-509), wild type (domain or fragment, human, UniProt Q96CV9 420-509, looked up)
chain: RAVLKELSEKLELAEKALASKQLQMDEMKQTIAKQEEDLETMTILRAQMEVYCSDFHAERAAREKIHEEKEQLALQLAVLLKENDAFEDG
B4: GST-ABIN-1 UBAN (aa 463-532), wild type (domain or fragment, mouse, UniProt Q9WUU8 463-532, looked up)
chain: LRKQELVTQNELLKQQVKIFEEDFQRERSDRERMNEEKEELKKQVEKLQAQVTLTNAQLKTLKEEEKAKE
B5: GST-NEMO UBAN (aa 250-339), wild type (domain or fragment, mouse, UniProt O88522 250-339, looked up)
chain: GMQLEDLRQQLQQAEEALVAKQELIDKLKEEAEQHKIVMETVPVLKAQADIYKADFQAERHAREKLVEKKEYLQEQLEQLQREFNKLKVG
B6: GST-NEMO UBAN (aa 250-339) A303E (domain or fragment, mouse, UniProt O88522 250-339, looked up)
chain: GMQLEDLRQQLQQAEEALVAKQELIDKLKEEAEQHKIVMETVPVLKAQADIYKEDFQAERHAREKLVEKKEYLQEQLEQLQREFNKLKVG

Target: the molecule itself
Assay: crystal structure
For B1, the “stoichiometry N” value was 2 chains in the oligomer.

The binders below were run against M1-linked tetra-ubiquitin (UniProt P0CG48 1-76; P0CG48 1-76; P0CG48 1-76; P0CG48 1-76) (assay: SPR).
Chain of M1-linked tetra-ubiquitin (P0CG48 1-304, one chain of several): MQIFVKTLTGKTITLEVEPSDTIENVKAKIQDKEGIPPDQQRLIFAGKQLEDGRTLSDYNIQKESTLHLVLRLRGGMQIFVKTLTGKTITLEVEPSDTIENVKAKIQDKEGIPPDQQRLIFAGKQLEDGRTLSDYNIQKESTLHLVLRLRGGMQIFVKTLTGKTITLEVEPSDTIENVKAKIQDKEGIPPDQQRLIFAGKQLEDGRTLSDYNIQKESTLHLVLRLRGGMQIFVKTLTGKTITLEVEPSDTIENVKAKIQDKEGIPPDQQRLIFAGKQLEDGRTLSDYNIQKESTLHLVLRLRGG
In the case of B2, the Kd is reported as 508 nM. B3 was tested, and the Kd was 916 nM. B4 was tested, and the Kd was 972 nM. B5 was tested, and the Kd was 562 nM. B6 showed a Kd of 362 nM.
